Columns and labels:
Conditions in all cases: Brevibacillus brevis
[1] = substrate: CC(=O)NCCSC(=O)[C@H](CC(C)C)NC(=O)[C@H](CCCN)NC(=O)[C@@H](NC(=O)[C@H](Cc1ccc(O)cc1)NC(=O)[C@H](CCC(N)=O)NC(=O)[C@H](CC(N)=O)NC(=O)[C@@H](Cc1ccccc1)NC(=O)[C@H](Cc1ccccc1)NC(=O)[C@H](CC(=O)O)NC(=O)[C@H](N)Cc1ccccc1)C(C)C; experiment: (§1) Apparent kinetic constant (Km) determined for tyrocidine thioesterase amplified from Bacillus brevis (ATCC8185)
[2] = substrate: CC(=O)NCCSC(=O)[C@H](CC(C)C)NC(=O)[C@H](CCCN)NC(=O)[C@@H](NC(=O)[C@H](Cc1ccc(O)cc1)NC(=O)[C@H](CCC(N)=O)NC(=O)[C@H](CC(N)=O)NC(=O)[C@@H](NC(=O)[C@H](Cc1ccccc1)NC(=O)[C@@H]1CCCN1C(=O)[C@H](N)Cc1ccccc1)[C@@H](C)O)C(C)C; experiment: as §1
[3] = substrate: CC(=O)NCCSC(=O)[C@H](CC(C)C)NC(=O)[C@H](CCCN)NC(=O)[C@H](CCC(N)=O)NC(=O)[C@H](Cc1ccc(O)cc1)NC(=O)[C@H](CCC(N)=O)NC(=O)[C@H](CC(N)=O)NC(=O)[C@@H](Cc1ccccc1)NC(=O)[C@H](Cc1ccccc1)NC(=O)[C@@H]1CCCN1C(=O)[C@H](N)Cc1ccccc1; experiment: as §1
[4] = substrate: CC(=O)NCCSC(=O)[C@H](CC(C)C)NC(=O)[C@H](CCCN)NC(=O)[C@@H](NC(=O)[C@H](Cc1ccc(O)cc1)NC(=O)[C@H](CCC(N)=O)NC(=O)[C@H](CC(N)=O)NC(=O)[C@@H](Cc1ccccc1)NC(=O)[C@H](CC(N)=O)NC(=O)[C@@H]1CCCN1C(=O)[C@H](N)Cc1ccccc1)C(C)C; experiment: as §1
[5] = substrate: CC(=O)NCCSC(=O)[C@H](CC(C)C)NC(=O)[C@H](CCCN)NC(=O)[C@@H](NC(=O)[C@H](Cc1ccc(O)cc1)NC(=O)[C@H](CCC(N)=O)NC(=O)[C@@H](NC(=O)[C@@H](Cc1ccccc1)NC(=O)[C@H](Cc1ccccc1)NC(=O)[C@@H]1CCCN1C(=O)[C@H](N)Cc1ccccc1)C(C)C)C(C)C; experiment: as §1

B1: Thioesterase GrsT homolog tycF (Brevibacillus brevis), O30412 (protein)
chain: MKLFCFPYAGGLPGIYYSWKSRLPPTFLEIDAFEVRPHIPQPNRDVFLPTSFYELLEDVCDRITPALTETPFAFFGHSMGGLVAFELTRKLMQKGAPLPQHLFLSASRAPHAYGKLAKTYNLPHDEFVEALRKLGGTPDDVLENQELLELFLPILRADFQAVQTYEMNPDLPRQVPVNMTVLYGTEDTIALEDIWAWRDYCQGACQFFPVSGGHFFIHHQTSPILEIIQNVLKEEKTVAIHSSF
- Km [1]: 96 µM
- Km [2]: 31 µM
- Km [3]: 62 µM
- Km [4]: 172 µM
- Km [5]: 25 µM

— ChEMBL document CHEMBL1135258, “Substrate spectrum of tyrocidine thioesterase probed with randomized peptide N-acetylcysteamine thioesters” (Bioorg Med Chem Lett, 2002)
